# Test results reported in patent US20250011363A1, “OPTIMIZED SHORTENED PEPTIDE THAT BINDS TO ACETYLCHOLINE RECEPTOR, AND USE THEREOF” (SKINMED CO., LTD., priority 2021, published 2025).
# B1: 6mer-1-370 (peptide)
# peptide: RKQLYK
# B2: 6mer-1-373 (peptide)
# peptide: KRGVLK
# B3: 6mer-1-380 (peptide)
# peptide: KRLQLR
# B4: 6mer-1-360 (peptide)
# peptide: KRVFLK
# B5: 6mer-1-382 (peptide)
# peptide: KRQYTR
# B6: 6mer-1-362 (peptide)
# peptide: KRVVYK
# B7: 6mer-1-368 (peptide)
# peptide: RRRFSK
# B8: 6mer-1-376 (peptide)
# peptide: RRQLRK
# B9: 6mer-1-383 (peptide)
# peptide: RKRRTK
# B10: 6mer-1-369 (peptide)
# peptide: KKWYRK
# B11: 6mer-1-374 (peptide)
# peptide: KKQFQK
# B12: 6mer-1-377 (peptide)
# peptide: KRWITR
# B13: 6mer-1-371 (peptide)
# peptide: KRSLTR
# B14: 6mer-1-378 (peptide)
# peptide: KRSLQK
# B15: 6mer-1-357 (peptide)
# peptide: KRRQTR
# B16: 6mer-1-375 (peptide)
# peptide: RRVFYR
# B17: 6mer-1-356 (peptide)
# peptide: KRGYSK
# B18: 6mer-1-361 (peptide)
# peptide: RKSVQR
# B19: 6mer-1-363 (peptide)
# peptide: KRQIRR
# B20: 6mer-1-365 (peptide)
# peptide: KKRICK
# B21: 6mer-1-384 (peptide)
# peptide: RKVICK
# B22: 6mer-1-358 (peptide)
# peptide: KRRYTR
# B23: 6mer-1-381 (peptide)
# peptide: RKGFYR
# B24: 6mer-1-385 (peptide)
# peptide: KRQVLR
# B25: 6mer-1-379 (peptide)
# peptide: KRRISK
# B26: 6mer-1-367 (peptide)
# peptide: RKGFSK
# B27: 6mer-1-359 (peptide)
# peptide: KRQFLR
# B28: 6mer-1-372 (peptide)
# peptide: RKLRSK
# B29: 6mer-1-364 (peptide)
# peptide: RKRQSK
# B30: 6mer-1-355 (peptide)
# peptide: RKVFYR
# B31: 6mer-1-366 (peptide)
# peptide: KRWFCR
# Target: acetylcholine receptor
# Assay: SPR, AchR immobilized on CM5 chip, peptide 10 uM
row,Binding affinity (RU),Binder
1,142 RU,B1
2,149 RU,B2
3,121 RU,B3
4,148 RU,B4
5,139 RU,B5
6,133 RU,B6
7,145 RU,B7
8,121 RU,B8
9,148 RU,B9
10,144 RU,B10
11,148 RU,B11
12,148 RU,B12
13,153 RU,B13
14,153 RU,B14
15,148 RU,B15
16,154 RU,B16

row,Binding affinity (RU),Binder
1,153 RU,B17
2,127 RU,B18
3,121 RU,B19
4,142 RU,B20
5,148 RU,B21
6,124 RU,B22
7,124 RU,B23
8,127 RU,B24
9,153 RU,B25
10,154 RU,B26
11,131 RU,B27
12,145 RU,B28
13,124 RU,B29
14,148 RU,B30
15,133 RU,B31
